This data set in a line: yeast display, Sf9 membrane polyspecificity reagent, FACS + sequencing; frameworks hold sequencing errors. The essentials: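 Genes from sorted yeast were amplified by colony PCR, read by MiSeq 2 × 250 sequencing and filtered on CDR length. These cells carried a synthetic nanobody library in Saccharomyces cerevisiae BJ5465 and were sorted by FACS into low and high (top ~1%) gates on anti-HA and streptavidin fluorescence. Polyreactivity is labelled according to the gate of origin.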
Consider “QVQLVESGGGLVQAGGSLRLSCASSGITFAKNAMGRYRQAPGKERELVAVITNTNYADSVKGRFTISRDNAKNTVYLQMNSLKPEDTAVYYCAVDGYGWYFARSWLRYYYWGQGTQVTVSS”, for which the “polyreactivity (PSR sort gate)” value is “low polyreactivity”.

For the sequence “QVQLVESGGGLLQAGGSLRLSCAASGSMFGLYAMGWYRQAPGKERELVAAISKSGGSTYYADSVKGRFTISRDNAKNTVYLQMNSLKPEDTAVYFCAARQYPRAGFDYWGQGTQVTVSS”, the “polyreactivity (PSR sort gate)” value was “high polyreactivity”.

Take “QVQLVESGGGLVQAGGSLRLSCAASGRIFPYYAMGWYRQAPGKVRELVASIRYSAGNTYYADSVKGRFTISRDNAKNTVYLQMNSLKPEDTAVYYCWYTQNTLGNYWGQGTQVTVSS”: the “polyreactivity (PSR sort gate)” value is reported as “low polyreactivity”.

Regarding “QVQLVESGGGLVQAGGSLRLSCAASGFIFKQYAMGWYRQAPGKERELVAAISWTGGSTYYADSVKGRFTISRDNAKNTVYLQMNSLKPEDTAVYYCAAKRRTRQSYYTEYYWGQGTQVTVSS”, the “polyreactivity (PSR sort gate)” value was “high polyreactivity”.

Consider “QVQLVESGGGLVQAGGSLRISCAASGSTFGRYAMGWYRQAPGKEREFVAAITQGGTNTYYADSVKGRFTISRDNAKNTVYLQMNSLKPEDTAVYYCARVRRYPLRYNYWGQGTQVTVSS”, for which the “polyreactivity (PSR sort gate)” value was “high polyreactivity”.

Turning to “QVQLVESGGGLVQAGGSLRLSCAASGSTFGRNAMGWYRQAPGKERELVASISWGGGSTYYADSVKVRFTISRDNAKNNVYLQMNSLKPEDTAVYYCAAGLAYWYWRGYDYWGQGTQVTVSS”, the “polyreactivity (PSR sort gate)” value is reported as “high polyreactivity”.

In the case of “QVQLVESGGALVQAGGSLRLSCAASGRIFSRYVIRWYRQAPGKERELVAAISWNGGSTYYADSVKGRFRISRDNAKNTVYLQMNSLKPEDTAVYYCAARVRVTGTYYTKFDYWGQGTQVTVSS”, the “polyreactivity (PSR sort gate)” value is “high polyreactivity”.

On to “QVQRVESGGGLVQAGGRLRLTCAASARIIRWYAMGWNRQAPGKERELVAAISGSGGSTYYADSVKGRFTISRDNAKNTVYLQMNSLKPEDTAVYYCAKDRDPVRAHDCWGQGTQVTVSS”, for which the “polyreactivity (PSR sort gate)” value was “high polyreactivity”.

Turning to “QVQLVESGGGIVQAGGSLRLSCAASGSTSRDYAMGWYRTAPGKERELVAAITWSGGRTYYADSVKGRFTISRDNAKNTVYLQMNSLKPEDTAVYYCAAYHREGRRDDYWGQGTQVTVSS”, the “polyreactivity (PSR sort gate)” value is “low polyreactivity”.

On to “QVQLVESGRALVQAGGSLRLSCAASGSTSRIYALGWYRQAPWKERELVAALTRSGGSTYYADSVKGRFTISRDNAKNTVYLQMNSLKPEDTAVYYCAADYRSHSRYRYDKVDYWGQGTQVTVSS”, for which the “polyreactivity (PSR sort gate)” value is listed as “high polyreactivity”.

Take “QVQLVESGGGIVQAGGSLRLSCAASGSTFATYAMGWYRQAHGKERELVAAITRSGGITYYADSVKGRFTISRDNAKKTVYLHMKSLKPEDTAVYYCNARTRSPTFSGRYYWGQATQVTVSS”: the “polyreactivity (PSR sort gate)” value is recorded as “high polyreactivity”.

As to “QVQLVESGGGLVQAGGSLRLSCAASGSIFYVNAMGWSRQAPGKERELVAAITSGVSTNYADSVKGSFTISRDNAKNTVYLQMNSLKREDTAVYYSAADYTYKQLHWVIEDYWGQGTQVTVSS”, the “polyreactivity (PSR sort gate)” value was “low polyreactivity”.

“QVQLVESGGGLVQAGGSLRLSCAASGFIFWSYAMVWYRQAPGKERELVAAISHGGSTNYADSVKGRFTISRDNSKNTVYLQMNSLKPEDTAVYYCAKDELYIPGVWPYYEYDYWGQGTQVTVSS”: the “polyreactivity (PSR sort gate)” value is “low polyreactivity”.

In the case of “QVQLVESGGGLVQAGGSLRLSCAASGGILTKYAMGWYRQAPGKEREFVAAISWRGGTTYYADSVKGRFTISRDNAKNTVYLQMNSLKPEDSAVYYCAADILWYFGQEYDYWGKGTQVTVSS”, the “polyreactivity (PSR sort gate)” value is given as “low polyreactivity”.

For the sequence “QVQLVESGGGLVQAGGSLGLSCAASGFTFYYYAMGWYRQAPGKERELVAIRFRGGNTYYADSVKGRFTISRDNAENTVYLQMNSLKPEDTAVYYCNADDLGSTYVDYDYWGQGTQVTVSS”, the “polyreactivity (PSR sort gate)” value is listed as “low polyreactivity”.

Regarding “QVQLVESGGGLVQAGGSLRLSCAASGSIFRNYAMGWSRQAPGKERELVAAINWNGGSTYYADSVKGRFTISRDNAKNTVYLQMNSLKPEDTAVYYCAARSSKFVTSNRYDYWGQGTQVTVSS”, the “polyreactivity (PSR sort gate)” value is listed as “high polyreactivity”.

As to “QVQLVESGGGLVQAGGSLRLSCAASGSIFLIYAMAWYRQAPGKERELVAAISSGGSTYYADSVKGRFTISRDNAKNTVYLQMNSLKPEDTAVYYCATYSTSVAYHLYYWGQGTQVTVSS”, the “polyreactivity (PSR sort gate)” value is recorded as “low polyreactivity”.

Take “QVQLVESGGGLVQAGGSLLLSCAASGLTFERYVMVWYRQAPGKERELVSSISRSGSTYYADSVKGRFTISRDNAKNTVYLQMNSLKPEDTAVYYCNADRFWFHWVYSRYHYDYWGQGTQVTVSS”: the “polyreactivity (PSR sort gate)” value is given as “high polyreactivity”.

On to “QVQLVESGGGKLQAGGSLRLSCAASGIILYVYAMGWYRQAPGKARELVAAITWSGGSTYYADSEKGRFTISRDNAKNTVYLQMNSLKPEDTAVYYCAVDVHTSADASLPQEYDYWGPGTQVTVSS”, for which the “polyreactivity (PSR sort gate)” value is given as “low polyreactivity”.

Take “QVQLVESGGCLVQAGGSLRLSCPASGSNFPDNAMGRYRPAPGKERELVAAISLSGGRTYYADSVKGRFTISRDNAKNTVYLQMNSLKPDDTAVYYCNKLTRFVKYDYWGQGTQVTVSS”: the “polyreactivity (PSR sort gate)” value is reported as “high polyreactivity”.

Take “QVQIVESGGGLVQAGGSLRLSCAASGSTFLKYTMGWYRQAPGKERELVAAISKSGGSTYYADSVKGRFTISRDNAKNTVYLQMNSLKPEDTAVYYCAIGRSWVSSYGYGYWGQGTQVTVSS”: the “polyreactivity (PSR sort gate)” value was “high polyreactivity”.

On to “QVQLVESGGGLVQAGGSLRLSCAASGSIFVPYTMGWYRQAPGKERELVASISYSGGTTYYADSVKGRFTISRDNAKNTVYLQMNSLKPEDTAVYYCAAQTLDGYDYWGQGTQVTVSS”, for which the “polyreactivity (PSR sort gate)” value is recorded as “low polyreactivity”.

As for “QVQLVESGGGLVPAGGSLRLSCAASGRTFGYYAMGWYRPAPGKERELVAAITSNGGSTYYADSVKGRFTISRDNAKNTVYLQMNSLKPEDTAVYYCNTGRRNRLYDYDYWGQGTQVTVSS”, the “polyreactivity (PSR sort gate)” value is reported as “high polyreactivity”.

With “QVHLVESGGGLVQAGGSLRLSCAASGSIFFTYAMGWYRQAPGKETEWVAAISSGGSPYYADSVKGRFTISRDNANNTVYLQMNSLKPEDTEVYYCAARGYRLVPVDFSYWGQGTQVTVSS”, the “polyreactivity (PSR sort gate)” value is “low polyreactivity”.

For the sequence “QVQLVESGGGLVQAGGSLRLSCAASGNTFYVKVMGWSRQAPGKERELVARITTSGGSTSYAESVKGRFTISRDNAKNTVSFQMNSMKPEDTAVYYCAASYHAFQNWEYDYWGQGTQVTVSS”, the “polyreactivity (PSR sort gate)” value was “low polyreactivity”.

For “QVQLVESGGGLVQAGGSLRLSCAAYGSTFGHYAMGWDRQAPGKERELVAAISSSGGSTYYADSVKGRFTISRDNAKNTVYLQMNSLKPEDTAVYYCAARYYHYSYAFGYWGQGTQVTVSS”, the “polyreactivity (PSR sort gate)” value is reported as “high polyreactivity”.

On to “QVQLVESGGGLVQAGGSLRLSCAASGFTFRKYVMGWYRQAPGKERELVAGISRSGSRTYYADSVKGRFTISRDNAKNTVYLQMNSLKPEDTAVYYCAADAAHSEYDYWGQGTQVTVSS”, for which the “polyreactivity (PSR sort gate)” value is “high polyreactivity”.

As for “QVQLVESGGGLVQAGGSLRLSCAASGSIFVNYAMGWYSQAPGTERELVAAISWRGGITYGVSVKGRFTISRDNAKNTVYLQMNSLKPEDTADYYSNTDGDDFFHVIYDYWAQGTQVTVSS”, the “polyreactivity (PSR sort gate)” value is listed as “low polyreactivity”.

Take “QVQLVESGGGLVQAGGSLRLSCAASGSTFAVNVMGWYRQAPGKERELVATITYRDGRTYYADSVKGRFTISRDNAKNTVYLQMNSLKPEDTAVYYCAADDEYKQEAEMDSWGQGTLVTVSS”: the “polyreactivity (PSR sort gate)” value was “low polyreactivity”.

As for “QVQLVESGGGLVQAGGSLRLSCAASGSIFLKNVMGWYRQAPGKERELVAAITARGGATYYADSVKGRFTISRDNAKKTVYLQLNSQKPEDTAVYYCAARARVVPSLGNPRMDYWGQGTQVTVSS”, the “polyreactivity (PSR sort gate)” value is recorded as “high polyreactivity”.

As for “QVQLVESGGGLVQAGGSLRISCADSASIFWGYAMGWYREAPGKERELVATIRNRGGSTYYADSVKGRFTISRDNAKYTVYLQMNSLKPEDTAVYYCAAVSYRQYYGWGNYWGQVTQVTVSS”, the “polyreactivity (PSR sort gate)” value is “low polyreactivity”.

On to “QVQLGESGGGLVQAGGSLRLSCAASGGILGYNAMGWYRQAPGKERELVATINWSGGSTYADSVKGRFTISRDNAKNTVYLQRNSLKPEDTADSYCNAVRKYWRQGTQVTVSS”, for which the “polyreactivity (PSR sort gate)” value was “low polyreactivity”.

Regarding “QVQLVESGGGLVQAGGSLRLSCAASGSTFRRYAMGWYRQAPGKERELVAAITTRGGSTYYADSVKGRFTISRDNAKNSVYLQMNSLKPEDTAVYYCARDYSTYLRTAGDYWGQGTQVTVSS”, the “polyreactivity (PSR sort gate)” value is recorded as “low polyreactivity”.

Take “HVHLVESGGGLVQAGGSLSLICAASGFIFRYYAMGWYRQAPGTEREVVAAITRGGSTYYADSVKGRFTISRDNAKNTVYLQMNSLKPVATAVYYCAARLYTQYYYWGQGTQVTVSS”: the “polyreactivity (PSR sort gate)” value is reported as “high polyreactivity”.

For “QVQLVESGGGLVQAGGSLRLSCAASGIIFDRYAMGWYRQAPGKERELVAAITRSGGRTYYADSVKGRFTISRDNAKNTVYLQMNSLKPEDTAVYYCNAYRSALYPPEYDYWGQGTQVTVSS”, the “polyreactivity (PSR sort gate)” value is on record as “high polyreactivity”.

For the sequence “QVQLVESGGCLVQAGGSLRLSCAASGSIFDVNAMGLYRQAPGKERELVAAISDSGGSTYYADSVKGRFTISRDNAKNTVYLQMNSLKPEDTAVYYCNADWSLYNYYDFDYWGQGTQVTVSS”, the “polyreactivity (PSR sort gate)” value is “low polyreactivity”.

Consider “QVQLVESGGGLVQAGGSLRLSSAASGRIFYLYAMGWYRQAPVKERELVAGITSGGRTNYADSVKGRFTISRDNAKNTFFLQMNSLKPEDTAVYYCAAYYWGLYSGYYWRQGTQVTVSS”, for which the “polyreactivity (PSR sort gate)” value was “high polyreactivity”.

On to “QVQLVESGGGLVQAGGSLRLSCAASGRTFGRNDMGWYRQAPGKERELLATITSGGSTNYADSVKGRFTISRDNAKNTVYLQMISLKPEDTAVYYCAAEFSPSRWAYSEGALRYNYWGQGTQVTVSS”, for which the “polyreactivity (PSR sort gate)” value is “low polyreactivity”.

“QVQLVESGGGIVQAGGSLRLSCAASGLTFSIYPIGWYRQAPGKERELVAAISWSGGSTYYADSVKGRFTISRDNAKNTVYLQMNSLKPEDTAVYYCAARVYRPWWSYDYWGQGTQVTVSS”: the “polyreactivity (PSR sort gate)” value was “high polyreactivity”.

With “QVQLVESGGGLVQAGGSLRLSCAASGRTFSYYAMGWSRQAPGKERELVAAMSWNGGSTYYADSVKGRFTISRDNAKNTVYFQMNSLKPEDTAVYYGAAAFYYYGDYDYWGQGTQVTVSS”, the “polyreactivity (PSR sort gate)” value is recorded as “low polyreactivity”.

As to “QVQLVESGGGLVQAGGSLRLSCAASGSIFFLYAMGWYRQAPGKERELVAAISVGGGSTYYADSVKGRFTFSRDNAKNTVYLHMNSLKPEDTAVYYCAALSKTRGGYWGQGTQVTVSS”, the “polyreactivity (PSR sort gate)” value was “high polyreactivity”.

The record behind these values is the nanobody polyreactivity screen of Harvey et al. (2022).
